Laboratory results reported in patent US20080058272A1 (published 2008).

T1: HLA-A2 (human, UniProt P04439 25-302 at identity 0.94))
T1 chain: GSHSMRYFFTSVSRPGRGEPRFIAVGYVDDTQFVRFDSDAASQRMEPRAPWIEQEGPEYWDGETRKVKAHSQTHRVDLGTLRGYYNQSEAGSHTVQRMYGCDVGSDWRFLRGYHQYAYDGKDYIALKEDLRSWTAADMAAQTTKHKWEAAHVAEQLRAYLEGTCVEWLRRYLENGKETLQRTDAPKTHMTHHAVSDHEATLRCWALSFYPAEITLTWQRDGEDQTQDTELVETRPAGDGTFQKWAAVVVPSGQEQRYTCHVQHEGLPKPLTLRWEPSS

B1: FAPα^560-568 (peptide)
peptide: YLASKEGMV
B2: FAPα^463-471 (peptide)
peptide: ALVCYGPGI
B3: FAPα^584-592 (peptide)
peptide: LLYAVYRKL
B4: FAPα^113-121 (peptide)
peptide: YLESDYSKL
B5: FAPα^639-647 (peptide)
peptide: GLFKCGIAV
B6: FAPα^104-112 (peptide)
peptide: GLSPDRQFV
B7: FAPα^486-494 (peptide)
peptide: KILEENKEL

Molecular target: T1, HLA-A2
Test: competitive binding assay (flow cytometry)

| IC50 | Binder |
| --- | --- |
| 15.3 µM | B1 |
| 4.7 µM | B2 |
| 13.3 µM | B3 |
| 8 µM | B4 |
| 5.6 µM | B5 |
| 9.1 µM | B6 |
| 33.8 µM | B7 |

Molecular target: T1, HLA-A2
Test: competitive binding assay (flow cytometry)
Remark: another data set of the same source

| IC50 | Binder |
| --- | --- |
| 4.7 µM | B2 |
| 33.8 µM | B7 |
